In general, stoichiometry N refers to the number of molecules, sites or subunits per partner or assembly.

This passage reports stoichiometry N results from publication PMC5919072.

Common to all, as to assay: SEC-MALS; static light scattering (MiniDAWN TREOS, three angles) inline with size exclusion on Superdex S75 10/300; 100 mM Na-phosphate pH 7.4, 400 mM NaCl; PfMDH-WT injected at 1.0 mg/ml
The target in assay [1] is PfMDH-E18Q, His6-tagged (Plasmodium falciparum).
The target in assay [2] is Wild-type malate dehydrogenase from Plasmodium falciparum (PfMDH-WT), His6-tagged (Plasmodium falciparum).
Assay [3] deals with PfMDH-V190W, His6-tagged (Plasmodium falciparum).
Assay [4] concerns the target PfMDH-E18W, His6-tagged (Plasmodium falciparum).

PfMDH-E18Q, His6-tagged (enzyme) yielded a stoichiometry N in assay [1] of 4.

For the substance “Wild-type malate dehydrogenase from Plasmodium falciparum (PfMDH-WT), His6-tagged (enzyme)”, the stoichiometry N in assay [2] was found to be 4.

PfMDH-V190W, His6-tagged (enzyme) returned a stoichiometry N in assay [3] of 2.

Substance PfMDH-E18W, His6-tagged (enzyme) registered a stoichiometry N in assay [4] of 2.
